The source of these data is patent US20240124586A1 (WUXI BIOLOGICS IRELAND, published 2024).

Like-named read-outs stand apart in the source and are kept apart here.

The EC50 is the concentration that produces a half-maximal response. A lower EC50 goes with a more potent agent. In general, Kd refers to the free concentration of one partner at which half of the binding sites on the other are occupied at equilibrium, for simple one-to-one binding. Low readings indicate tighter binding, high ones weaker binding.

In test [1] the target is T1, human CTLA-4 on engineered 293F cells (W316-293F.hPro1.FL) (human, UniProt P16410 36-223).
T1 construct: whole, on cells; also called human CTLA-4 engineered cells; CTLA-4+ cells
T1 sequence (P16410 36-223, change not shown): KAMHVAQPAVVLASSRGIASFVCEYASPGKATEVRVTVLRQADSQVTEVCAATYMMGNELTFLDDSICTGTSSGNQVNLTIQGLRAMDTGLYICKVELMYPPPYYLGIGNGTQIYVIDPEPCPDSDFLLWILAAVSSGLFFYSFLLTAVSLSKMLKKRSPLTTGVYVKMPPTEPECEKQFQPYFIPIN
Description: FACS binding to human CTLA-4 engineered cells. The method, then:
3.16-fold titrated Abs with 1% BSA DPBS from 200 nM to 0.002 nM were added to the cells. Plates were incubated at 4° C. for 1 hour. After wash, […] 1:150 diluted PE-labeled goat anti-human antibody (Jackson 109-115-098) was added to each well and the plates were incubated at 4° C. for 1 hour. The binding of the antibodies onto the cells was tested by flow cytometry and the mean fluorescence intensity (MFI) was analyzed by FlowJo.
A general note: Flow cytometry measures light scatter and fluorescence of single cells or particles in a stream.

Test [2] has as its target T2, ECD of human CTLA-4 (SPR analyte) (human, UniProt P16410 36-161).
T2 construct: extracellular domain
Description: SPR (Biacore T200), antibody captured by anti-human Fc, CTLA-4 ECD as analyte. The protocol:
SPR technology was used to measure the on-rate constant (ka) and off-rate constant (kd) of the antibodies to ECD of CTLA-4 or PD-1. The affinity constant (KD) was consequently determined.
Biacore T200, Series S Sensor Chip CM5, Amine Coupling Kit, and 10×HBS-EP were purchased from GE Healthcare. Goat anti-human IgG Fc antibody was purchased from Jackson ImmunoResearch Lab (catalog number 109-005-098). In immobilization step, the activation buffer was prepared by mixing 400 mM EDC and 100 mM NHS immediately prior to injection. The CM5 sensor chip was activated for 420 s with the activation buffer. 30 μg/mL of goat anti-human IgG Fcγ antibody in 10 mM NaAc (pH 4.5) was then injected to Fc1-Fc4 channels for 200 s at a flow rate of 5 μL/min. The chip was deactivated by 1 M ethanolamine-HCl (GE). Then the antibodies were captured on the chip. Briefly, 4 μg/mL antibodies in running buffer (HBS-EP+) was injected individually to Fc3 channel for 30 s at a flow rate of […]. […] Regeneration buffer (10 mM Glycine pH 1.5) was injected at 10 μL min for 30 s following every dissociation phase.
On the technique in general: SPR reads the build-up and loss of mass on a sensor chip optically.

Test [3] has as its target T3, human CD19 on CD19+ B cell lines (Ramos, Raji) (human, UniProt P15391 20-556).
T3 sequence (looked up): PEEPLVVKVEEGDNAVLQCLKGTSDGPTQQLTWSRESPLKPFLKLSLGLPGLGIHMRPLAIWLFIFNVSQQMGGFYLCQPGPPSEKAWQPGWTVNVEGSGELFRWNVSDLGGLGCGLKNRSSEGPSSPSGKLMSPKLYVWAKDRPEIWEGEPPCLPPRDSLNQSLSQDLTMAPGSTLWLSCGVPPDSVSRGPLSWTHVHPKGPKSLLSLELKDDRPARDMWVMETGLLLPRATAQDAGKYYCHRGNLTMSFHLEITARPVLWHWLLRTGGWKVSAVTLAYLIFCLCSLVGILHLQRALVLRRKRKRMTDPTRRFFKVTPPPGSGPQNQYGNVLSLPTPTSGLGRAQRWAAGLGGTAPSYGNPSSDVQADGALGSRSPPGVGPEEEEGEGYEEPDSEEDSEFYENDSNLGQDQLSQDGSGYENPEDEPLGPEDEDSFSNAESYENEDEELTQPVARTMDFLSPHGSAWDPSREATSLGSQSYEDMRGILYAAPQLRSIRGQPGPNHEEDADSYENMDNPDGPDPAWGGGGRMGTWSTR
As to the kind of experiment: cell-based or functional assay.

Test [4] concerns the target T3, human CD19 on CD19+ B cell lines …. Description: flow cytometry on Ramos cells.
Test [5] has as its target T4, FcγRI (UniProt P12314 16-288, limits assumed).
T4 construct: His-tagged by the capture method
Description: SPR (Biacore), receptor captured on anti-his chip, 1:1 model. The method, then:
(§1) Antibody binding affinity to FcγRs was detected using Biacore T200 (or Biacore 8K). Each receptor was captured on an anti-his antibody immobilized CM5 sensor chip (GE). Antibodies at different concentrations were injected over the sensor chip at a flow rate of 30 uL/min for an association phase of 60 s, followed by 60 s dissociation. The chip was then regenerated by 10 mM glycine (pH 1.5) after each binding cycle.
(§2) The sensorgrams of blank surface and buffer channel were subtracted from the test sensorgrams. The experimental data was fitted by 1:1 model using Langmiur analysis (for FcγRI) or steady state model (for other receptors). A molecular weight of 150 KDa was used to calculate the molar concentration of antibodies.

Test [6] concerns the target T4, FcγRI. The test is described as above. The protocol: as §1, §2
This is another data set of the same source.

For test [7], the target named is T5, human CD3 on CD3+ Jurkat cells (human, UniProt P07766 23-207; P09693 23-182; P04234 22-171).
T5 construct: whole, on cells; also called CD3 positive Jurkat cells
T5 sequence (P07766 23-207, chain 1 of 3): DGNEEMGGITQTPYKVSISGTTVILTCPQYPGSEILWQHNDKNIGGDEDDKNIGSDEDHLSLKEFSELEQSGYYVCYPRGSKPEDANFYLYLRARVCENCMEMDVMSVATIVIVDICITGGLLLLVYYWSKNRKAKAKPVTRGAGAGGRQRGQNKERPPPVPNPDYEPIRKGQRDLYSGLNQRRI
T5 sequence (P09693 23-182, chain 2 of 3): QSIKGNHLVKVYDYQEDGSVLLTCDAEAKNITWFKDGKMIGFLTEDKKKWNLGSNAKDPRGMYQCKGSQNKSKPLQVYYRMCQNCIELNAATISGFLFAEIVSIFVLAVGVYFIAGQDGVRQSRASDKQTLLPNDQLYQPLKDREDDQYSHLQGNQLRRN
T5 sequence (P04234 22-171, chain 3 of 3): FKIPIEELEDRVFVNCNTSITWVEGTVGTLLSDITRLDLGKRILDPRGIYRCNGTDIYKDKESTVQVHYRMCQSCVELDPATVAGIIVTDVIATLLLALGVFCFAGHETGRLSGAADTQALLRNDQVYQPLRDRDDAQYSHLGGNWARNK
Description: affinity by flow cytometry on Jurkat cells (bound/free versus bound). The protocol:
Binding affinity to CD3 and CD19 was determined by flow cytometry using Jurkat and Ramos cells, respectively. The cells were transferred in to 96-well U-bottom plates (BD) at a density of 5×10⁴ cells/well. Antibodies to be tested were 1:2-fold serially diluted in 1% 1×PBS/1% BSA and incubated with cells at 4° C. for 1 hr. Then, the plates were centrifuged at 1500 rpm for 4 mins and the supernatant discarded. […] The cells were washed once and re-suspended in 100 μL 1×PBS/1% BSA. Fluorescence intensity was measured by flow cytometry (BD Canto II) and analyzed by FlowJo. Fluorescence intensity was converted to bound molecules/cell based on the quantitative beads (Quantum™ MESF Kits, Bangs Laboratories). KD was calculated by Graphpad Prism5.
The bound IgG/free IgG versus bound IgG was plotted in FIGS. 46A and 46B.

A further test concerns the target T6, FcγRIIb (UniProt P31994 46-217, limits assumed).
T6 sequence (looked up): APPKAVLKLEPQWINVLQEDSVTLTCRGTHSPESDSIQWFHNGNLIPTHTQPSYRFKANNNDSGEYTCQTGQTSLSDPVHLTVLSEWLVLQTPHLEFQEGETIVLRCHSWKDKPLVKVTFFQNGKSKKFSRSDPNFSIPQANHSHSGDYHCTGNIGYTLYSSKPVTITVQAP
As to the kind of experiment: SPR (Biacore), receptor captured on anti-his chip, steady state model. The method, then:
as §1, §2

T4 sequence (P12314 16-288 limits assumed): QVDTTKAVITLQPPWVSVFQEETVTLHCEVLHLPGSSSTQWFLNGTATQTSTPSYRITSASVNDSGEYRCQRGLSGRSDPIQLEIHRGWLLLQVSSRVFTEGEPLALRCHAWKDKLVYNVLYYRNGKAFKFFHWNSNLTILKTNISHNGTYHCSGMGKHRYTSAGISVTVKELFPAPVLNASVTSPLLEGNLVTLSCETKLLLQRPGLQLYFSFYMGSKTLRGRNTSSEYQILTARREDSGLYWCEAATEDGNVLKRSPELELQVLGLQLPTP
T2 sequence (P16410 36-161): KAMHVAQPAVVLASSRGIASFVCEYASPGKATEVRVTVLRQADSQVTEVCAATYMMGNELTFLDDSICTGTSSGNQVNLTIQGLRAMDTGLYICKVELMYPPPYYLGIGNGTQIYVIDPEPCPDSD

B1: W3248-U6T5.G25-1.uIgG4.SP, bispecific anti-PD-1 x CTLA-4 (bispecific antibody)
heavy: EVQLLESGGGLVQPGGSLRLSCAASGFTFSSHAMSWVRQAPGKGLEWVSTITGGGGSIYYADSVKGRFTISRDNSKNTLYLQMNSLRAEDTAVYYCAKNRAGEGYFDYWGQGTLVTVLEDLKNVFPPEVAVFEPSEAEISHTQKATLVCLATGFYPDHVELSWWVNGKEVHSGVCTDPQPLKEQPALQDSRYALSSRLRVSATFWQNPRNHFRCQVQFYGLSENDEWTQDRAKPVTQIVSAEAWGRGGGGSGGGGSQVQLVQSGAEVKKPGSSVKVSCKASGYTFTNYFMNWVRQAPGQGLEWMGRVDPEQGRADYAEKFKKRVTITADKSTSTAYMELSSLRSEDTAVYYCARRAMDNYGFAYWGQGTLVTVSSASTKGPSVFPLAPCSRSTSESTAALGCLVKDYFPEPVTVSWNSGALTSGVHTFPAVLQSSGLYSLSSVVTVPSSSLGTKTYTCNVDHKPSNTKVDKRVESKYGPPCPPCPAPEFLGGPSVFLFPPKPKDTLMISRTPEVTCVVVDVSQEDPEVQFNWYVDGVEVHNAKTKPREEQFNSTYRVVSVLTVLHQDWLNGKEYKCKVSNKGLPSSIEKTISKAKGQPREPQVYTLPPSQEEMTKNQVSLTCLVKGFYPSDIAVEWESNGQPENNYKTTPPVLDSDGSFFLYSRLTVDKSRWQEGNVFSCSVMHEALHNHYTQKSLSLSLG
light 1: SYELTQPLSVSVALGQTARITCGGDNIGNKDVHWYQQKPGQAPVLVIYRDSNRPSGIPEGFSGSNSGNTATLTISRAQAGDEADYYCQVWDSIWVFGGGTKLTVLPDIQNPDPAVYQLRDSKSSDKSVCLFTDFDSQTQVSQSKDSDVYITDKCVLDMRSMDFKSNSAVAWSQKSDFACANAFQNSIIPEDTFFPSPESS
light 2: EIVLTQSPDFQSVTPKEKVTITCSANSALSYMYWYQQKPDQSPKLWVHGTSNLASGVPSRFSGSGSGTDFTLTINSLEAEDAATYYCHHWSNTQWTFGGGTKVEIKRTVAAPSVFIFPPSDEQLKSGTASVVCLLNNFYPREAKVQWKVDNALQSGNSQESVTEQDSKDSTYSLSSTLTLSKADYEKHKVYACEVTHQGLSSPVTKSFNRGEC
notes: IgG4 (S228P); also called WBP3248-U6T5.G25-1-uIgG4.SP; U6T5.G25.IgG4
Take B1: the EC50 in test [1] came out at 3.17 nM. The same molecule returned a Kd in test [2] of 0.357 nM.

B2: W3438-T3U4.E17-1.uIgG4.SP, bispecific anti-CD3 x CD19 (bispecific antibody)
heavy 1: QVQLVQSGAEVKKPGSSVKVSCKASGFAFTDYYIHWVRQAPGQGLEWMGWISPGNVNTKYNENFKGRVTITADKSTSTAYMELSSLRSEDTAVYYCARDGYSLYYFDYWGQGTLVTVLEDLKNVFPPEVAVFEPSEAEISHTQKATLVCLATGFYPDHVELSWWVNGKEVHSGVCTDPQPLKEQPALQDSRYALSSRLRVSATFWQNPRNHFRCQVQFYGLSENDEWTQDRAKPVTQIVSAEAWGRYGPPCPPCPAPEFLGGPSVFLFPPKPKDTLMISRTPEVTCVVVDVSQEDPEVQFNWYVDGVEVHNAKTKPREEQFNSTYRVVSVLTVLHQDWLNGKEYKCKVSNKGLPSSIEKTISKAKGQPREPQVYTLPPCQEEMTKNQVSLWCLVKGFYPSDIAVEWESNGQPENNYKTTPPVLDSDGSFFLYSRLTVDKSRWQEGNVFSCSVMHEALHNHYTQKSLSLSLGK
light 1: DIVMTQSPDSLAVSLGERATINCKSSQSLLNSRTRKNYLAWYQQKPGQPPKLLIYWASTRQSGVPDRFSGSGSGTDFTLTISSLQAEDVAVYYCTQSHTLRTFGGGTKVEIKPDIQNPDPAVYQLRDSKSSDKSVCLFTDFDSQTQVSQSKDSDVYITDKCVLDMRSMDFKSNSAVAWSQKSDFACANAFQNSIIPEDTFFPSPESS
heavy 2: QMQLVQSGPEVKKPGTSVKVSCKASGYAFTSYNMYWVRQARGQRLEWIGYIDPYNGDTTYNQKFKGRVTITRDMSTSTAYMELSSLRSEDTAVYYCLTTAYAMDYWGQGTLVTVSSASTKGPSVFPLAPCSRSTSESTAALGCLVKDYFPEPVTVSWNSGALTSGVHTFPAVLQSSGLYSLSSVVTVPSSSLGTKTYTCNVDHKPSNTKVDKRVESKYGPPCPPCPAPEFLGGPSVFLFPPKPKDTLMISRTPEVTCVVVDVSQEDPEVQFNWYVDGVEVHNAKTKPREEQFNSTYRVVSVLTVLHQDWLNGKEYKCKVSNKGLPSSIEKTISKAKGQPREPQVCTLPPSQEEMTKNQVSLSCAVKGFYPSDIAVEWESNGQPENNYKTTPPVLDSDGSFFLVSRLTVDKSRWQEGNVFSCSVMHEALHNHYTQKSLSLSLGK
light 2: DIQLTQSPSFLSASVGDRVTITCSASSTVNYMHWYQQKPGKAPKLLIYSTSNLASGVPSRFSGSGSGTEFTLTISSLQPEDFATYYCHQWSSYPYTFGQGTKLEIKRTVAAPSVFIFPPSDEQLKSGTASVVCLLNNFYPREAKVQWKVDNALQSGNSQESVTEQDSKDSTYSLSSTLTLSKADYEKHKVYACEVTHQGLSSPVTKSFNRGEC
notes: also called E17-Design_2-QQQQ (IgG4); E17-IgG4; copies: 1 + 1 + 1 + 1
On to B2, for which the “EC50 of T-cell directed killing of malignant B cells (PI-positive Raji cells)” value in test [3] came to 0.057 nM. In test [3], the “EC50 of T-cell engaged malignant B cell killing” value was 0.0177 nM. Also, the “EC50 of cell lysis, CD8+ T cells and Raji cells, 4 hours” value in test [3] stood at 15 nM. In addition, the EC50 in test [4] was found to be 15.6 nM. For the same molecule, the Kd with FcγRI [5] was 9.79 nM; with FcγRI [6], 9.79 nM; in test [7], 9 nM; in the test with FcγRIIb, 24100 nM.
